Experimental data published in patent US10758526B2, “Combination therapies using agents that target tumor-associated stroma or tumor cells and other pathways” (BIOMED VALLEY DISCOVERIES, INC., priority 2014, dated 2020).

Key:
[1] = test system: MC38 colon carcinoma liver metastasis; experiment: Efficacy of M830 in MC38 colon carcinoma liver metastasis model; format: in vivo, C57BL/6 mice
Excerpt: C57BL/6 mice were challenged with MC38 colon carcinoma liver metastasis by intrasplenic injections of cultured cells.

[2] = test system: H460 non-small cell lung carcinoma xenograft; experiment: Efficacy of M830 in the H460 non-small cell lung carcinoma xenograft model; format: in vivo, athymic nude mice; conditions: for % Tumor Reduction vs. Vehicle at Day 21: 3 times per week; for % Tumor Reduction vs. combination partner at Day (#): Day 32
Procedure: Animals were monitored for regression responses.
The statistical tests were not adjusted for multiple comparisons.
Cultured H460 cells were harvested during exponential growth and resuspended in phosphate buffered saline at a concentration of 1×10^8 cells/mL. 1.0×10^7 tumor cells were injected subcutaneously into the flank of athymic nude mice. Animals were euthanized when tumors reached the pre-determined volume endpoint of 2000 mm^3 or on the final day (Day 88), whichever came first.

[3] = Pharmacokinetics of TEM8 antibodies in mouse, multiple dose; format: in vivo
Excerpt: (§1) Tables 8 and 9 show pharmacokinetic properties of TEM8 antibodies according to the present invention in mouse for single dose (Table 8) and multiple dose (Table 9) treatments.

[4] = molecular target: T1, hTEM8-AP (Homo sapiens, UniProt Q9H6X2); experiment: Biocore affinity measurement of anti-TEM8 Fabs, hTEM8-AP; format: binding
T1 sequence (Q9H6X2 33-321 limits assumed): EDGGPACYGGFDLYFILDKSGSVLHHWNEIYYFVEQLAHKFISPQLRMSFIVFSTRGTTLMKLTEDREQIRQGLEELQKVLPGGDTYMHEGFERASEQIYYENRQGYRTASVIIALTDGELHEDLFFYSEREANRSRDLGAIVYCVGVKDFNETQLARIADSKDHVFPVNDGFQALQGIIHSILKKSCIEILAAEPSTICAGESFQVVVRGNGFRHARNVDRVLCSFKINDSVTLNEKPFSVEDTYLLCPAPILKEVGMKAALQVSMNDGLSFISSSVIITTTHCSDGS

[5] = molecular target: T2, mTEM8-Fc (Mus musculus, UniProt Q9CZ52); experiment: Biocore affinity measurement of anti-TEM8 Fabs, mTEM8-Fc; format: binding
T2 construct: Fc
T2 sequence (Q9CZ52 31-319 limits assumed): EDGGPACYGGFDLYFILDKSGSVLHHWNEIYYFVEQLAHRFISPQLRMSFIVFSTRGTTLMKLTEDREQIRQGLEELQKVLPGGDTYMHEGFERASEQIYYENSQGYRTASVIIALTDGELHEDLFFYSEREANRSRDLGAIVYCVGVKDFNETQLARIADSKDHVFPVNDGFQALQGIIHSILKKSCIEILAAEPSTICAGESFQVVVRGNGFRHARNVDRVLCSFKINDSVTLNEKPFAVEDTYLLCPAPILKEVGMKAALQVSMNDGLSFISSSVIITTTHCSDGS

[6] = test system: UACC melanoma cells; experiment: TEM8 antibody efficacy in UACC melanoma model; format: in vivo, mice
Procedure: UACC melanoma cells were cultured and injected subcutaneously into mice. Treatment was initiated with a tumor volume of 50 mm^3, and treatment groups consisted of one of four TEM8 antibodies (M825, M830, M863, and M822), each dosed at 15 mg/kg, 3 times per week for 3-4 weeks.

[7] = Pharmacokinetics of TEM8 antibodies in mouse, single dose; format: in vivo
Excerpt: as §1

[8] = test system: HCT116 colorectal carcinoma xenograft; experiment: Efficacy of TEM8 antibodies in the HCT116 colorectal carcinoma xenograft model; format: in vivo, mice; conditions: HCT116 Colon; M830 alone; IP, 3 times per week; treatment initiated at 60-80 mm^3
Procedure: Tumor cells were cultured in RPMI-1640 medium supplemented with 10% fetal bovine serum, 2 mM glutamine, 100 units/mL penicillin G sodium, 100 μg/mL streptomycin sulfate, and 25 μg/mL gentamicin. The tumor cells were grown in tissue culture flasks in a humidified incubator at 37° C., in an atmosphere of 5% CO2 and 95% air.
2.5×10^6 to 5×10^6 HCT116 tumor cells were injected subcutaneously into the flank of mice. Tumor weights were calculated following surgical removal. Treatment was initiated when tumor volume reached 60-80 mm^3. Dosing volume was 10 mL/kg (0.2 mL/20 g mouse).
TEM8 Ab (hIgG1) doses were 5 and 15 mg/kg, three times per week, for 3 weeks. Bevacizumab was dosed at 5 mg/kg, twice per week, for 3 weeks. FIG. 1B and FIG. 1D show mean tumor growth and percent body weight change for each group, respectively, over the time course of the study.

[9] = test system: DLD-1 colorectal adenocarcinoma xenograft; experiment: Efficacy of M830 alone and in combination in the DLD-1 colorectal adenocarcinoma xenograft model; format: in vivo, mice; conditions: for % Tumor Reduction vs. Vehicle at Day 21 / % Tumor Reduction vs. combination partner at Day (#): DLD1 Colon; for % Tumor Reduction vs. Vehicle at Day 21: 3 times per week; for % Tumor Reduction vs. combination partner at Day (#): Day 21; for combination compared with any agent alone / efficacy against DLD-1 cancer cells in the xenograft model: first study
Procedure: Tumor weights were calculated following surgical removal. […] Irinotecan was given once per week at 60 mg/kg i.v. and bevacizumab was dosed at 5 mg/kg i.p., three times per week.
In a second study, treatment was initiated with a large tumor volume of approximately 170 mm^3. M830 alone or in combinations with bevacizumab, irinotecan, or both, was given as a loading dose of 20 mg/kg followed by 5 mg/kg three times per week. The doses of bevacizumab and irinotecan were the same as in the first study. An additional group received a combination of bevacizumab and irinotecan without the M830 antibody.

[10] = Group 7: M830 in combination with paclitaxel, n=10
[11] = H460 Lung, combination partner Paclitaxel
[12] = M830 15 mg/kg IP in combination with bevacizumab 5 mg/kg IP
[13] = M830 in combination with bevacizumab, n=10
[14] = combination of M830 and paclitaxel

B1: M830: TEM8 monoclonal antibody (hIgG1), VH SEQ ID NO:5 and VL SEQ ID NO:6 (antibody, V domains shown)
VH: EVQLVESGGGVVQPGRSVRLSCAASGFTFSTYTMHWVRQAPGKGLEWVAIISNDGSNKYYADPVRGRFTISRDNSKNTLYLQMNSLRAEDTAVYYCVRGSSWYRGNWFDPWGQGTLVTVSS
VL: DIQMTQSPSSLSASVGDRVTIACRASQTISRYLNWYQQKPGKAPKLLIYAASSLQSGVSSRFSGSGSGTEFTLTISSLQPEDFATYFCQQTYSPPITFGQGTRLEIKR
modifications: TEM830 mAb VH; TEM830 mAb VL
[1]; P=0.0001
  survival of mice: significantly improved the survival
[1]; versus 11 days for vehicle treated mice
  median survival rate: 17 days
[2]; Group 7: M830 15 mg/kg IP in combination with paclitaxel 30 mg/kg IV, maximum possible TGD 65.2 days (286%) for the 88-day study
  TGD: maximum TGD
[2]; Group 7: M830 15 mg/kg IP in combination with paclitaxel 30 mg/kg IV, n=10
  regression responses: 90%
[2]; [10]
  CRs (complete regressions): seven
  PRs (partial regressions): two
  TFS (tumor-free survivors) at study end: three
[2]; H460 Lung, M830 alone, IP
  % Tumor Reduction vs. Vehicle at Day 21: 62%
[2]; H460 Lung, combination partner Bevacizumab
  % Tumor Reduction vs. combination partner at Day (#): 58.5% (32)
[2]; H460 Lung, combination partner Bevacizumab, M830 IP
  % Tumor Reduction vs. Vehicle at Day 21: 94.5%
[2]; [11]
  regression (in cell of % Tumor Reduction vs. Vehicle at Day 21): −61%
  % Tumor Reduction vs. combination partner at Day (#): 94% (32)
[2]; H460 Lung, combination partner Paclitaxel, M830 IP, treatment initiated at 60-80 mm^3
  % Tumor Reduction vs. Vehicle at Day 21: > 100%
[2]; [12]
  % TGD: 146%
  TGD: 33.2 days
[2]; [13]
  CRs (complete regressions): 3
  PR (partial regressions): 1
  TFS (tumor-free survivors) at study end: three
  regression responses: 40%
[2]; M830 in combination with paclitaxel
  rank of activity among regimens: most active treatment regimen tested
[2]; [14]
  combination compared with either agent alone: more effective than either agent alone
  efficacy against H460 cancer cells in the xenograft model: effective
[3]; 5 mg/kg
  AUCI: 4316.79 µg·h/mL
  AUCT: 4315.918 µg·h/mL
  CLF: 1.16 mL/h/kg
  CMAX: 86400 ng/mL
  HALF: 22.88 h
  KEL: 0.0303 h⁻¹
  TMAX: 3 h
  VZF: 38.24 mL/kg
[3]; 15 mg/kg
  AUCI: 23053.875 µg·h/mL
  AUCT: 23052.853 µg·h/mL
  CLF: 0.65 mL/h/kg
  CMAX: 330000 ng/mL
  HALF: 18.70 h
  KEL: 0.0371 h⁻¹
  TMAX: 3 h
  VZF: 17.55 mL/kg
[4]
  ka: 607100 M⁻¹ s⁻¹
  kd: 0.0009533 s⁻¹
[5]
  ka: 774900 M⁻¹ s⁻¹
  kd: 0.002901 s⁻¹
[6]; 15 mg/kg, 3 times per week for 3-4 weeks, treatment initiated at 50 mm^3
  slowing of tumor growth: effective at slowing tumor growth
[6]; UACC Melanoma, M830 alone, IP, 3 times per week, treatment initiated at about 50 mm^3
  % Tumor Reduction vs. Vehicle at Day 21: 65%
[7]; 5 mg/kg
  AUCI: 2242.485 µg·h/mL
  AUCT: 2242.286 µg·h/mL
  CLF: 2.23 mL/h/kg
  CMAX: 67500 ng/mL
  HALF: 8.54 h
  KEL: 0.0811 h⁻¹
  TMAX: 3 h
  VZF: 27.48 mL/kg
[7]; 15 mg/kg
  AUCI: 10692.742 µg·h/mL
  AUCT: 10692.598 µg·h/mL
  CLF: 1.40 mL/h/kg
  CMAX: 203000 ng/mL
  HALF: 14.94 h
  KEL: 0.0464 h⁻¹
  TMAX: 3 h
  VZF: 30.24 mL/kg
[8]
  % Tumor Reduction vs. Vehicle at Day 21: 39.5%
[9]; M830 alone, IP
  % Tumor Reduction vs. Vehicle at Day 21: 68%
[9]; combination partner Bevacizumab
  % Tumor Reduction vs. combination partner at Day (#): 48% (21)
[9]; combination partner Bevacizumab, M830 IP
  % Tumor Reduction vs. Vehicle at Day 21: 86%
[9]; combination partner Irinotecan
  % Tumor Reduction vs. combination partner at Day (#): 53% (21)
[9]; combination partner Irinotecan, M830 IP, treatment initiated at about 50 mm^3
  % Tumor Reduction vs. Vehicle at Day 21: 86%
[9]; combination M830/bevacizumab
  combination compared with any agent alone: more effective than any agent alone
  efficacy against DLD-1 cancer cells in the xenograft model: effective
[9]; combination M830/irinotecan
  combination compared with any agent alone: more effective than any agent alone
  efficacy against DLD-1 cancer cells in the xenograft model: effective
[9]; second study, M830 with bevacizumab and irinotecan
  triple combination compared with M830/bevacizumab combination: did not outperform the M830/bevacizumab combination therapy
